Source: the nanobody polyreactivity screen of Harvey et al. (2022)

Test: yeast display, Sf9 membrane polyspecificity reagent, FACS + sequencing; frameworks hold sequencing errors
In short: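 Galactose-induced (36–48 hours) yeast carrying a synthetic nanobody display library were exposed to 10% biotinylated, detergent-solubilized Sf9 membrane reagent at 4 °C for 1 hour. FACS followed streptavidin microbead enrichment, using low and high (top ~1%) gates for expression (anti-HA) and reagent binding (streptavidin). Colony PCR, MiSeq 2 × 250 sequencing and CDR-length filtering followed. Labels for polyreactivity reflect the gate of origin.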

| Sequence | polyreactivity (PSR sort gate) |
| --- | --- |
| QVQLVESGGGLVQAGGSLRLSCAASGRIFNYYAMGWYRQAPGKERELVAGISGSGTSTYYADSVKGRFTISRDNAKNTVYLQMNSLKPEDTAVYYCAADVFRDDVWLDYWGQGTQVTVSS | low polyreactivity |
| QVQLVESGGGLVQAGGSLRLSCAASGRIFNYYAMGWYRQAPGKERELVATISRNGGRTYYADSVKGRFTISRDNAKNTVYLQMNSLKPEDTAVYYCATDGLYRYDYWGQGTQVTVSS | high polyreactivity |
| QVQLVESGGGLVQAGGSLRLSCAASGRIFNYYAMGWYRQATGKERELVARIDASGDSTYYADSVKGRFTISRDNAKNTVYLQMNSLKPEDTAVYYCNKDYLYSYLWGWKVYSYDYWGQGTQVTVSS | low polyreactivity |
| QVQLVESGGGLVQAGGSLRLSCAASGRIFPANAMGWYRQAPWKERELVAAISSTGGSTYYADSVKGRFTISRDNAKNSVYLQMKSLKPEDTAVYYCAKVHYRWPRVTWPNVWWSFEYWGQGTQVSVSS | low polyreactivity |
| QVQLVESGGGLVQAGGSLRLSCAASGRIFPAYAMGWYRQAPGKERELVAAISWTGTSTYYADSVKGRFTISRDNAKNTVYLQMNSLKPEDTAVYYCAARSYRLRSAYNYWGQGTQVTVSS | high polyreactivity |
| QVQLVESGGGLVQAGGSLRLSCAASGRIFPDNAMGWYRQAPGKERELVASITSGASTNYADSVKGRFTISRDNAKNTVFLQMNSLKPEDTAVYYCAAGYSYYDDYDYWGQGTQVTVSS | high polyreactivity |
| QVQLVESGGGLVQAGGSLRLSCAASGRIFPDNAMGWYRQARGKERELVAAMTYSGGSTSYADSVKGRFTISRDNAKNTVYLQMNSLKPEDTAVYYCNKGGGTSYDYVRVDKYPGDYWGQGTQVTVSS | low polyreactivity |
| QVQLVESGGGLVQAGGSLRLSCAASGRIFPENAMGWYRQAPGKERELVAAINNNDGDTYYADSVKGRFTISRDNAKNTVYLQMNSLKPEDTAVYYCAADEAYWLSYVWGIGYDYWGQGTQVTVSS | low polyreactivity |
| QVQLVESGGGLVQAGGSLRLSCAASGRIFPEYAMGWYRQAPGKERELVAAITSSGRTYYADSVKGRFTISRDNAKNTVYLQMNSLKPEDTAVYYCAASFRRYYRWDYGFWGQGTQVTVSS | high polyreactivity |
| QVQLVESGGGLVQAGGSLRLSCAASGRIFPGKAMGWYRQAPGKEREFVASINWSRGSTFYADSVKGRFTISRDNAKNTVYLQMNRLIPEDTAVYYCSARTFGYYRSRSYNYWGQGTQVTVSS | high polyreactivity |
| QVQLVESGGGLVQAGGSLRLSCAASGRIFPGYAMGWYRQAPGKERELVASISSGGRTYYADSVKGRFTISRDNAKNTVYLQMNSLIPEDTAVYYCNSRHSSYSFRYDYWGQGTQVTVSS | low polyreactivity |
| QVQLVESGGGLVQAGGSLRLSCAASGRIFPGYTMGWYRQAPGKERELVAGISRSGGRTYYADSVKGRFTISRDNAKNTVYLQMNSLKPEDTAVYYCADDGYPGRRYTGMDYWGQGTQVTVSS | high polyreactivity |
| QVQLVESGGGLVQAGGSLRLSCAASGRIFPHYSMGWYRQAPGKERELVAANSWSGSSTYYADSVKGRFTISRDNAMNTVYLQMNSLKPEDTAVYYCNAVRRGIGYDYGYWGQGTQVTVSS | high polyreactivity |
| QVQLVESGGGLVQAGGSLRLSCAASGRIFPKYAMGWYSQAPGKERELVAGITKRVGSTYYADSVKGRFTISRDNAKNTVYLQMNSLKPDDTAVYYCAADYRYLIDYLDPEKEGMDYWGQGTQVTVSS | low polyreactivity |
| QVQLVESGGGLVQAGGSLRLSCAASGRIFPLYAMGWYRKAPGKERELVAAISYSGGSTYYADSVKGRFTISRDNAKNTVYLQMISLKPEDTSVYYCAAQTARVSYRMGYWGQGTQVTVSS | high polyreactivity |
| QVQLVESGGGLVQAGGSLRLSCAASGRIFPLYAMGWYRQAPGKERELVAAITWRAGITYYADSVKGRFTISRDNAKNTVYLQMNSLKPEDTAVYYCAARFVRGRGFAYGYWGQGTQVTVSS | high polyreactivity |
| QVQLVESGGGLVQAGGSLRLSCAASGRIFPLYAMGWYRQAPGKERELVARITYSGGSTYYADSVKGRFTISRDNAKNTVYLQMNSLKPEDTAVYYCAKDTYGRSTRNGYWGQGTQVTVSS | low polyreactivity |
